Source: article PMC8609364, “A Selective Tether Recruits Activated Response Regulator CheB to Its Chemoreceptor Substrate” (mBio, 2021)
Read-outs that look alike come from different tables or passages of the source. Ends that are not written are not given here.

Key:
[1] = test system: CheB binding to pentapeptide; set-up: method as in PMID 11435446; conditions: ref [11]; cited from earlier work
[2] = biological target: Tar4EΔpp-6H L378C, E. coli Tar lacking the carboxyl-terminal pentapeptide, all-glutamyl form, homodimer in Nanodiscs (E. coli) (UniProt P07017); experiment: BLI; BLItz; biotinylated Tar homodimers in Nanodiscs held on an avidin sensor tip, CheB-P* or CheB-P*-I in solution; 50 mM Tris-HCl pH 7.5, 10% glycerol, 5 mM MgCl2, 50 mM KCl, 2% BSA, no DTT; global fit, apparent rate constants, KD calculated from kon and koff
[3] = biological target: Tar4Q L378C, E. coli aspartate chemoreceptor Tar, all-glutaminyl form with carboxyl-terminal pentapeptide, homodimer in Nanodiscs (E. coli) (UniProt P07017); experiment: as above
[4] = biological target: Tar4QΔpp-6H L378C, E. coli Tar lacking the carboxyl-terminal pentapeptide, all-glutaminyl form, homodimer in Nanodiscs (E. coli) (UniProt P07017); experiment: as above
[5] = biological target: Tar4E L378C, E. coli aspartate chemoreceptor Tar, all-glutamyl form with carboxyl-terminal pentapeptide, homodimer in Nanodiscs (E. coli) (UniProt P07017); experiment: as above
[6] = biological target: CheB; experiment: Binding of CheB to NWETF pentapeptide tethered to the sensor surface via a linker (biolayer interferometry); set-up: species or system E. coli; conditions: BLI, low-activity, unphosphorylated CheB, read-out: Equilibrium dissociation constant, pentapeptide alone
Protocol: (§1) We measured binding of the low-activity, unphosphorylated form of CheB to the NWETF pentapeptide tethered to the sensor surface via a linker or in its native position at the carboxyl terminus of Tar4E or Tar4Q ([23]). Equilibrium dissociation constants were essentially the same for all conditions, 190 ± 85 μM for pentapeptide alone, and 230 ± 70 and 160 ± 30 for the pentapeptide on Tar4E or Tar4Q, respectively (Table 1).
Kinetics of CheB association and dissociation with Nanodisc-embedded Tar biotinylated at L378C were determined using biolayer interferometry ([22], [23]) as measured by a BLItz instrument (ForteBio, Menlo Park, CA, USA) and described in reference. Representative time course experiments are shown in Fig. S1 in the supplemental material. Measurements for CheB-P* and CheB-P*-I were in 50 mM Tris-HCl (pH 7.5), 10% (wt/vol) glycerol, 5 mM MgCl2, 50 mM KCl, and 2% (wt/vol) bovine serum albumin (BSA). Measurements for CheB and CheBc were in the same solution plus 2 mM dithiothreitol (DTT).
Using BLItz software, response curves were fit globally to a 1:1 binding model to yield apparent association rate constants (kon) and dissociation rate constants (koff). […]

[7] = biological target: unphosphorylated CheB; conditions: isothermal titration calorimetry, free pentapeptide, ref [21], read-out: equilibrium dissociation constant; cited from earlier work
Protocol: as §1, with “1). Within the error of the measurements, these values corresponded to those previously determined for free pentapeptide binding to unphosphorylated CheB by isothermal titration c ...” for “1).”

[8] = test system: CheB; conditions: position 132; ref [11]; cited from earlier work
[9] = biological target: CheB; conditions: low-activity, unphosphorylated CheB from E. coli; ref [21]; read-out: dissociation constants; cited from earlier work
Excerpt: (§2) CheB is a two-domain protein, with an amino-terminal response regulator domain attached by a linker sequence to a carboxyl-terminal catalytic domain ([17]) (Fig. 1B). Phosphorylation of the response regulator domain by the chemotaxis histidine kinase creates a high-activity form of the methylesterase ([6]), shifting interaction between the two domains to an “open” conformation that relieves occlusion of the active site by the regulatory amino-terminal domain ([18], [19]). The enzyme binds its substrate chemoreceptor side chains with the surfaces surrounding its active site ([20]). In contrast, ...

[10] = biological target: unphosphorylated CheB; conditions: equilibrium dialysis, free pentapeptide, ref [21], read-out: equilibrium dissociation constant; cited from earlier work
[11] = biological target: T1, methylesterase/deamidase CheB from E. coli, low-activity, unphosphorylated form (E. coli, UniProt P07330 1-349); experiment: BLI; BLItz; NWETF pentapeptide tethered to the sensor surface via a linker, CheB in solution; apparent rate constants, KD calculated from kon and koff; conditions: both partners purified
T1 construct: CheB methylesterase/deamidase of E. coli, unphosphorylated, from plasmid pCW/cheB; measured with 2 mM DTT in the buffer; also called low-activity CheB; unmodified CheB; source: E. coli K-12 RP3098 with pCW/cheB, purified
T1 sequence (looked up): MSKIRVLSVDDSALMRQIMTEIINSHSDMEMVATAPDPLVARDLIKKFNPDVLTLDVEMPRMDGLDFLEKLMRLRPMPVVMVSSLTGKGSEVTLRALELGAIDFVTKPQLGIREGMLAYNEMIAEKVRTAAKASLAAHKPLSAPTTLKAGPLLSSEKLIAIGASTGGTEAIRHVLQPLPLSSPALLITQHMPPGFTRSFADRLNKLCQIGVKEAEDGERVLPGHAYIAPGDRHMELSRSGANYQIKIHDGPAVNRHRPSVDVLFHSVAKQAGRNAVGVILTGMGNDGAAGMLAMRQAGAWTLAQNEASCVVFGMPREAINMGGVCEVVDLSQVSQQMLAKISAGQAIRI

[12] = low-activity, unphosphorylated CheB; ref [16]; read-out: dissociation constant; cited from earlier work
Excerpt: as §2

For “peptide from CheB residues 130 through 140 (AAKASLAAHKP; UniProt P07330 130-140, looked up, fragment)”, the “reduction of binding of intact enzyme to pentapeptide” value [1] is listed as “reduced binding of intact enzyme to pentapeptide”.

“CheB-P*, phosphorylation mimic of Salmonella CheB D56C/C207S/C309S modified with thiophosphate (from UniProt P04042 1-349) (enzyme)” gave a Kd [2] of 200 µM, a Kd [3] of 13 µM and a dwell time (1/koff) [3] of 3 s. For the same molecule, the Kd [4] was 200 µM, the Kd [5] was 13 µM and the dwell time (1/koff) [5] was 3 s.

In the case of NWETF [NWETF], the Kd [6] is given as 190 ± 85 µM, the Kd [7] is given as 160 µM and the “protection of intact CheB from limited proteolysis” value [8] is given as “protected intact CheB from limited proteolysis at position 132”. For the same molecule, the Kd [9] was 130 to 160 µM and the Kd [10] was 130 µM.

With “CheB-P*-I, enzymatically inactive phosphorylation mimic, Salmonella CheB D56C/S164A/C207S/C309S modified with thiophosphate (from UniProt P04042 1-349) (enzyme)” the fold reduction of KA against CheB-P* [3] was 2.5 fold and the fold reduction of KA against CheB-P* [5] was 2.5 fold.

B1: NWETF pentapeptide tethered to the sensor surface via a linker (peptide)
peptide: NWETF
modifications: also: tethered to sensor surface via a linker (not described)
notes: carboxyl-terminal pentapeptide of the E. coli chemoreceptor Tar; also called pentapeptide alone
In the case of B1, the Kd [11] is reported as 190 µM.

B2: CheB from Pseudomonas aeruginosa (protein, UniProt O87125 1-368, looked up)
Protein-glutamate …: MAVKVLVVDDSGFFRRRVSEILSADGQIQVVGTGTNGREAIEQALALRPDVITMDYEMPLMDGITAVRNIMQRCPTPVLMFSSLTHEGARVTLDALDAGAVDYLPKNFEDISRNPDKVRQLLCEKVLTIARSNRRSISLPPLPSATSSSHAPASSSSVGASARVGAGASPAPASTSAAPKRKAYRLVAIGTSTGGPVALQRVLTQLPANFPAPLVLIQHMPAAFTKAFAERLDKLCRINVKEAEDGDILRPGLALLAPGGKQMMVDGRGTVRILPGDERLNYKPCVDVTFGSAAKAYNDKVLAVVLTGMGADGREGARLLKQGGSQVWAQDEASCVIYGMPMAVVKANLADAVYGLDDIGRHLVEACQ
In the case of B2, the Kd [12] is listed as roughly 90 µM.
